Measurements as given in the supplement of paper PMC5998384.

Tests used:
[1] = system: HeLa Kyoto; experiment: melting temperature (median over replicates), in situ; higher = more thermally stable
[2] = system: HeLa Kyoto; experiment: solubility in G1/S (NP-40 vs SDS abundance) (log2 ratio); higher = more soluble; conditions: cell cycle stage: G1/S
[3] = system: HeLa Kyoto; experiment: thermal stability score vs G1/S (z-score of summed log2 fold changes over temperatures); higher = more thermally stable than in G1/S
[4] = system: HeLa Kyoto; experiment: solubility change mitosis vs G1/S (difference of NP-40 vs SDS log2 ratios) (log2 ratio difference); higher = more soluble in mitosis
[5] = cell cycle stage: early G1 (4.5 h after nocodazole release)
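For melting temperature (median over replicates), in situ in this document: HeLa Kyoto cells synchronized by double thymidine or nocodazole block, proteins quantified by TMT10plex mass spectrometry, three independent biological replicates.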
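For solubility change mitosis vs G1/S (difference of NP-40 vs SDS log2 ratios) in this document: synchronized HeLa Kyoto cells (double thymidine block for G1/S, nocodazole release for mitosis), protein amounts in NP-40 versus SDS lysates quantified by mass spectrometry, three biological replicates.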
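For solubility in G1/S (NP-40 vs SDS abundance) in this document: HeLa Kyoto cells arrested at G1/S by double thymidine block, proteins quantified by TMT10plex mass spectrometry in mild NP-40 versus SDS extracts, three biological replicates.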
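For thermal stability score vs G1/S (z-score of summed log2 fold changes over temperatures) in this document: synchronized HeLa Kyoto cells, proteins quantified by TMT10plex mass spectrometry, three biological replicates, mitosis taken 0.5 h after nocodazole release, G1/S directly after double thymidine block.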

Sequence of EZH2 (chain, as listed by the source): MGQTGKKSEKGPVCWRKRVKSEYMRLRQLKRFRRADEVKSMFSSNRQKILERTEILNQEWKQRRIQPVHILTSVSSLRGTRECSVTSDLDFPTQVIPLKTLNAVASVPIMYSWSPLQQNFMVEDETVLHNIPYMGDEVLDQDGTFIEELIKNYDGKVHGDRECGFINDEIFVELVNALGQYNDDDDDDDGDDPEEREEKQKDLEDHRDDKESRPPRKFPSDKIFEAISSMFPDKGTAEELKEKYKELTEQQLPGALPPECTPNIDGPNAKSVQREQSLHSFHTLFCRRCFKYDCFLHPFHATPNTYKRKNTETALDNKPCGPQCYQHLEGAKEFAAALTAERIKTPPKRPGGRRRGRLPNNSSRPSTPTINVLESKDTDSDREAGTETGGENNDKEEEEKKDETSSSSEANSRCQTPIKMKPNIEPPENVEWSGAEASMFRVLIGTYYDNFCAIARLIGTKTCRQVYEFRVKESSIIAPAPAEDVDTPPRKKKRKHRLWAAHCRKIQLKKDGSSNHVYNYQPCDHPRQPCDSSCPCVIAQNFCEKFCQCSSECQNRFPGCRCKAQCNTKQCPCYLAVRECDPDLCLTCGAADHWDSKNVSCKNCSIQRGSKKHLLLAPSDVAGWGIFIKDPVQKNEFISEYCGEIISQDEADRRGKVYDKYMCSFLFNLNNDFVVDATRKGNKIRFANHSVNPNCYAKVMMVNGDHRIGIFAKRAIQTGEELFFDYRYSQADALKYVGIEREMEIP
Sequence of CDK12 (chain, as listed by the source): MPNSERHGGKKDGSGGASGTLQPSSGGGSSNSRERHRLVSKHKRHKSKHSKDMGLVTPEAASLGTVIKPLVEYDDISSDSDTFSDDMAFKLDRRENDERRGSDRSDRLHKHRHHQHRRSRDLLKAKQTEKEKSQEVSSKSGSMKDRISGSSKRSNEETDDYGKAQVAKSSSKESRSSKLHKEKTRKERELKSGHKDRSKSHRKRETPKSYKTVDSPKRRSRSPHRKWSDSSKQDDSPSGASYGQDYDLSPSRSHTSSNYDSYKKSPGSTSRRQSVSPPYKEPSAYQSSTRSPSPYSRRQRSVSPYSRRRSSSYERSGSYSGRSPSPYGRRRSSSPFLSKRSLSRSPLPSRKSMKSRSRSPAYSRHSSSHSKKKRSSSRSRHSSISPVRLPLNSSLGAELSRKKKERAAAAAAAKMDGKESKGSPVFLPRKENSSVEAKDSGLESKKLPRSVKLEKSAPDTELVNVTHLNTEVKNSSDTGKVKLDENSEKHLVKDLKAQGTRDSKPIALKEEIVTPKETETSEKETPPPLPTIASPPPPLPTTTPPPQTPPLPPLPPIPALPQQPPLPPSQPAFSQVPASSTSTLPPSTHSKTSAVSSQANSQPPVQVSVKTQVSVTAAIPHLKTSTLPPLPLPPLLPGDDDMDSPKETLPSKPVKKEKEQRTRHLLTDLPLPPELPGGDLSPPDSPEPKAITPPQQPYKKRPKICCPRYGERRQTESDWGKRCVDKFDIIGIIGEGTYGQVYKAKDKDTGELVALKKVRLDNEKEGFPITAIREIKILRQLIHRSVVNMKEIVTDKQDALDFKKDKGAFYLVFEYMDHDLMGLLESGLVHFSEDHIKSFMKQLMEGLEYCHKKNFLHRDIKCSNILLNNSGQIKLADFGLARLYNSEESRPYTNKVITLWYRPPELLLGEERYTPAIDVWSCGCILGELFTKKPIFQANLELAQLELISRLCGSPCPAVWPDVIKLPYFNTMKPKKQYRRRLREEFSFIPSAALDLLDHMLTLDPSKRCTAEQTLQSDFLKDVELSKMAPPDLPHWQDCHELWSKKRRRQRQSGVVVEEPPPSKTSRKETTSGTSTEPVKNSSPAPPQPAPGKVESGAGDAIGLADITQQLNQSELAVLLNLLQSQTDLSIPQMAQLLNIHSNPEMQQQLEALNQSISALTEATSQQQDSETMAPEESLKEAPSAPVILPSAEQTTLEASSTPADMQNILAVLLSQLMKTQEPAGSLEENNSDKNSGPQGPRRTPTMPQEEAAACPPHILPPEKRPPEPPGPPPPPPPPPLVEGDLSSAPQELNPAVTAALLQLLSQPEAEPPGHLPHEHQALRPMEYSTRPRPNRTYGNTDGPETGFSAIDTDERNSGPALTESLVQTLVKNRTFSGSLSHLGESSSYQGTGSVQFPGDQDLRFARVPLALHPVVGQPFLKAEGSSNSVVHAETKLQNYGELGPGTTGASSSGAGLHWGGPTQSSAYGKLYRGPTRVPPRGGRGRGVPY

Row | Substance | melting temperature ([1]; cell cycle stage: G1/S) [°C] | melting temperature ([1]; cell cycle stage: mitosis) [°C] | solubility in G1/S (log2) [2] | thermal stability score [3, 5] | thermal stability score ([3]; cell cycle stage: mitosis) | solubility change mitosis (log2) [4]
1 | MTSGATRYRLSCSLRGHELDVRGLVCCAYPPGAFVSVSRDRTTRLWAPDSPNRSFTEMHCMSGHSNFVSCVCIIPSSDIYPHGLIATGGNDHNICIFSLDSPMPLYILKGHKNTVCSLSSGKFGTLLSGSWDTTAKVWLNDKCMMTLQGHTAAVWAVKILPEQGLMLTGSADKTVKLWKAGRCERTFSGHEDCVRGLAILSETEFLSCANDASIRRWQITGECLEVYYGHTNYIYSISVFPNCRDFVTTAEDRSLRIWKHGECAQTIRLPAQSIWCCCVLDNGDIVVGASDGIIRVFTESEDRTASAEEIKAFEKELSHATIDSKTGDLGDINAEQLPGREHLNEPGTREGQTRLIRDGEKVEAYQWSVSEGRWIKIGDVVGSSGANQQTSGKVLYEGKEFDYVFSIDVNEGGPSYKLPYNTSDDPWLTAYNFLQKNDLNPMFLDQVAKFIIDNTKGQMLGLGNPSFSDPFTGGGRYVPGSSGSSNTLPTADPFTGAGRYVPGSASMGTTMAGVDPFTGNSAYRSAASKTMNIYFPKKEAVTFDQANPTQILGKLKELNGTAPEEKKLTEDDLILLEKILSLICNSSSEKPTVQQLQILWKAINCPEDIVFPALDILRLSIKHPSVNENFCNEKEGAQFSSHLINLLNPKGKPANQLLALRTFCNCFVGQAGQKLMMSQRESLMSHAIELKSGSNKNIHIALATLALNYSVCFHKDHNIEGKAQCLSLISTILEVVQDLEATFRLLVALGTLISDDSNAVQLAKSLGVDSQIKKYSSVSEPAKVSECCRFILNLL [PLAA] | 49.5 | 50 | -0.0389 | 1.32 | 1.3 | -0.198
2 | EZH2 | 49 | 49.9 | -0.621 | 2.26 | 4 | 0.156
3 | CDK12 | 50.9 | 52.5 | -0.473 | -0.391 | 0.677 | 0.238
4 | MAERQEEQRGSPPLRAEGKADAEVKLILYHWTHSFSSQKVRLVIAEKALKCEEHDVSLPLSEHNEPWFMRLNSTGEVPVLIHGENIICEATQIIDYLEQTFLDERTPRLMPDKESMYYPRVQHYRELLDSLPMDAYTHGCILHPELTVDSMIPAYATTRIRSQIGNTESELKKLAEENPDLQEAYIAKQKRLKSKLLDHDNVKYLKKILDELEKVLDQVETELQRRNEETPEEGQQPWLCGESFTLADVSLAVTLHRLKFLGFARRNWGNGKRPNLETYYERVLKRKTFNKVLGHVNNILISAVLPTAFRVAKKRAPKVLGTTLVVGLLAGVGYFAFMLFRKRLGSMILAFRPRPNYF [GDAP1] | 54 | 52 | -0.194 | 1.45 | 1.45 | -0.1
5 | MAQAKINAKANEGRFCRSSSMADRSSRLLESLDQLELRVEALREAATAVEQEKEILLEMIHSIQNSQDMRQISDGEREELNLTANRLMGRTLTVEVSVETIRNPQQQESLKHATRIIDEVVNKFLDDLGNAKSHLMSLYSACSSEVPHGPVDQKFQSIVIGCALEDQKKIKRRLETLLRNIENSDKAIKLLEHSKGAGSKTLQQNAESRFN [BAG2] | 50.9 | 50.9 | 0.345 | -2.02 | -3.48 | 0.474
6 | MLRLPTVFRQMRPVSRVLAPHLTRAYAKDVKFGADARALMLQGVDLLADAVAVTMGPKGRTVIIEQSWGSPKVTKDGVTVAKSIDLKDKYKNIGAKLVQDVANNTNEEAGDGTTTATVLARSIAKEGFEKISKGANPVEIRRGVMLAVDAVIAELKKQSKPVTTPEEIAQVATISANGDKEIGNIISDAMKKVGRKGVITVKDGKTLNDELEIIEGMKFDRGYISPYFINTSKGQKCEFQDAYVLLSEKKISSIQSIVPALEIANAHRKPLVIIAEDVDGEALSTLVLNRLKVGLQVVAVKAPGFGDNRKNQLKDMAIATGGAVFGEEGLTLNLEDVQPHDLGKVGEVIVTKDDAMLLKGKGDKAQIEKRIQEIIEQLDVTTSEYEKEKLNERLAKLSDGVAVLKVGGTSDVEVNEKKDRVTDALNATRAAVEEGIVLGGGCALLRCIPALDSLTPANEDQKIGIEIIKRTLKIPAMTIAKNAGVEGSLIVEKIMQSSSEVGYDAMAGDFVNMVEKGIIDPTKVVRTALLDAAGVASLLTTAEVVVTEIPKEEKDPGMGAMGGMGGGMGGGMF [HSPD1] | 55.2 | 55 | 0.316 | 1.84 | -0.583 | 0.129
7 | MDAVNAFNQELFSLMDMKPPISRAKMILITKAAIKAIKLYKHVVQIVEKFIKKCKPEYKVPGLYVIDSIVRQSRHQFGTDKDVFGPRFSKNITATFQYLYLCPSEDKSKIVRVLNLWQKNGVFKIEIIQPLLDMAAGTSNAAPVAENVTNNEGSPPPPVKVSSEPPTQATPNSVPAVPQLPSSDAFAAVAQLFQTTQGQQLQQILQTFQQPPKPQSPALDNAVMAQVQAITAQLKTTPTQPSEQKAAFPPPEQKTAFDKKLLDRFDYDDEPEAVEESKKEDTTAVTTTAPAAAVPPAPTATVPAAAAPAAASPPPPQAPFGFPGDGMQQPAYTQHQNMDQFQPRMMGIQQDPMHHQVPLPPNGQMPGFGLLPTPPFPPMAQPVIPPTPPVQQPFQASFQAQNEPLTQKPHQQEMEVEQPCIQEVKRHMSDNRKSRSRSASRSPKRRRSRSGSRSRRSRHRRSRSRSRDRRRHSPRSRSQERRDREKERERRQKGLPQVKPETASVCSTTLWVGQLDKRTTQQDVASLLEEFGPIESINMIPPRGCAYIVMVHRQDAYRALQKLSRGNYKVNQKSIKIAWALNKGIKADYKQYWDVELGVTYIPWDKVKPEELESFCEGGMLDSDTLNPDWKGIPKKPENEVAQNGGAETSHTEPVSPIPKPLPVPVPPIPVPAPITVPPPQVPPHQPGPPVVGALQPPAFTPPLGIPPPGFGPGVPPPPPPPPFLRPGFNPMHLPPGFLPPGPPPPITPPVSIPPPHTPPISIPNSTIAGINEDTTKDLSIGNPIPTVVSGARGNAESGDSVKMYGSAVPPAAPTNLPTPPVTQPVSLLGTQGVAPGPVIGLQAPSTGLLGARPGLIPLQRPPGMPPPHLQRFPLMPPRPMPPHMMHRGPPPGPGGFAMPPPHGMKGPFPPHGPFVRPGGMPGLGGPGPGPGGPEDRDGRQQPPQQPQQQPQPQAPQQPQQQQQQQPPPSQQPPPTQQQPQQFRNDNRQQFNSGRDQERFGRRSFGNRVENDRERYGNRNDDRDNSNRDRREWGRRSPDRDRHRDLEERNRRSSGHRDRERDSRDRESRREKEEARGKEKPEVTDRAGGNKTVEPPISQVGNVDTASELEKGVSEAAVLKPSEELPAEATSSVEPEKDSGSAAEAPR [SCAF4] | 48.5 | 51.4 | -0.347 | 0.0642 | -0.063 | 0.211
